Source: patent publication US9512196B2, “Short-form human MD-2 as a negative regulator of toll-like receptor 4 signaling” (Cedars-Sinai Medical Center, priority 2008, dated 2016)

Molecular target: T1, TLR4 (Homo sapiens, UniProt O00206)
T1 construct: expressed in transfected cells; host or cells: HEK293
Test: Co-immunoprecipitation with Flag-tagged TLR4 in HEK293 cells
Type: binding
Settings: Myc-tagged protein, anti-Flag co-immunoprecipitation
Procedure: (A) Cells stably expressing CFP-tagged TLR4 were transiently transfected with plasmids encoding wild-type MD-2 (upper panels) or MD-2s (lower panels). 24 h later, cells were incubated with an anti-Myc antibody and cross-liked with Alexa 647-conjugated anti-mouse polyclonal secondary antibody. (B) HEK293 cells were transiently transfected with a plasmid encoding for Flag-tagged TLR4 (lane 2) and cotransfected with either a Myc-tagged MD-2 (lane 3) or a Myc-tagged MD-2s (lanes 1 and 4) expressing plasmid. Co-immunoprecipitation experiments were then performed using an anti-Flag antibody (lanes 2-4) or an IgG isotype control antibody (lane 1). Samples were fractionated by SDS-PAGE and immunoblotting with an anti-Myc antibody was performed. Experiment shown is representative of 4 separate experiments.
HEK 293 cells were seeded into 100 mm dishes (1.5×10^6) 24 h prior to transfection. Transfections were performed according to the manufacturer's instructions using lipofectamine. […] For immunoblotting, primary antibodies were detected using horseradish peroxidase-conjugated secondary antibodies, followed by enhanced chemiluminescence (Amersham Biosciences).
To address this possibility, co-localization studies to examine the cellular distribution of MD-2s with respect to TLR4 were performed. […] Next whether MD-2s is physically associated with TLR4 was assessed. […]

T1 sequence (O00206 24-839): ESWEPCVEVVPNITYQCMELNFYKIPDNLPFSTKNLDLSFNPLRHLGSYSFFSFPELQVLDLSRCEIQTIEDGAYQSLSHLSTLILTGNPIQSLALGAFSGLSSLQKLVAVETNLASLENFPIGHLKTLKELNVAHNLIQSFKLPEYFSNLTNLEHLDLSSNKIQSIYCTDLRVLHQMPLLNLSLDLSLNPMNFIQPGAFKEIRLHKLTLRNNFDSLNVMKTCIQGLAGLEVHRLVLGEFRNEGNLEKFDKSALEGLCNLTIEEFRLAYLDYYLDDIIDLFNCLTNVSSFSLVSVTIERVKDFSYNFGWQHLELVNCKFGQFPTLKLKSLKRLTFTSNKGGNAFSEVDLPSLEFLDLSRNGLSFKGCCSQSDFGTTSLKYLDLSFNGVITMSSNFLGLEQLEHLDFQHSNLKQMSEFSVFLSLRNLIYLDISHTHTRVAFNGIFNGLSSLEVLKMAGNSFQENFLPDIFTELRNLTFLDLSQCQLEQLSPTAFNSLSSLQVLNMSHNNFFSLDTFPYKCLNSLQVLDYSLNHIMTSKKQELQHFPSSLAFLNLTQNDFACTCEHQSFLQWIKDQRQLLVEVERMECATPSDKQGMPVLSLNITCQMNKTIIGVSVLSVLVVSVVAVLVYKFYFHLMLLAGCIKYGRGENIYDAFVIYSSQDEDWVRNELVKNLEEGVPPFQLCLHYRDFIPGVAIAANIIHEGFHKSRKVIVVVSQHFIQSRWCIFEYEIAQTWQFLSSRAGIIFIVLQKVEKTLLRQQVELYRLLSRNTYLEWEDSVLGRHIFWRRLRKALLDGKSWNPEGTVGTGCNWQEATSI

B1: MD-2s: alternatively spliced isoform of human MD-2 lacking exon 2, with D38G substitution; expressed and secreted protein sequences in Table 1 (protein, listed as Homo sapiens)
chain 1: MLPFLFFSTLFSSIFTEAQKQYWVCNSSDASISYTYCGRDLKQLYFNLYITVNTMNLPKRKEVICRGSDDDYSFCRALKGETVNTTISFSFKGIKFSKGKYKCVVEAISGSPEEMLFCLEFVILHQPNSN
chain 2: EAQKQYWVCNSSDASISYTYCGRDLKQLYFNLYITVNTMNLPKRKEVICRGSDDDYSFCRALKGETVNTTISFSFKGIKFSKGKYKCVVEAISGSPEEMLFCLEFVILHQPNSN
  Interaction with TLR4: direct interaction between MD-2s and TLR4 was observed
